In a protein production outcome set (Wang et al. 2014):

Test: label from the status in PepcDB records
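Note: failed if final PepcDB status was selected cloned or expressed and not failed if soluble or beyond.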

Sequence	protein production
MVKMIEQLKRSFAVAKKDMLIFYLKGPVIIMGLIFPFFLFLAFFIGRNLEKAQLFTALISMTAFFTSTAVGPTIIPWECRGRTFERLITAPVSLTTVLLGDLQASFYFGTAITFIISTVAIFILSIRPNLQIFLVATILAILTFSAMTILMSSYPPTDVPADIMMLSSLVKFSLLFISGIFVPLKDLPKYARWISYASPLTYYVDALRNSLGDGCLPLWIDFGMLALFGILFFLSGVAIHKKVLERRFT	failed
MVKMKKVEQLSSHLYLIDDFDLQHNERTGTYVLLGDDITLIETCAAPSLPYILDGLQQLHIDLNEVKNIIVTHVHLDHAGAAGLMMEKCPNATLYVHSRGARHMIDPTKLILGAKAVYKEDFDKLFDPILPIEEERVHIVQHGDTLQIAEDRILTFYDTPGHAKHHISIHDSLTNGIFTGDTIGIYYRELADLGVELYLPSTSPSQFQPDAMIASKNHIQSMNVDTIYFGHYGASSNVTEVYKQLEHWLPIFVHTGKEVFEKYNDFDEATKALQTILMDKISSHLIKLNVPSDHSVYNILHLDIEISAMGIIDYFTKLEKTNPPIS	failed
MVKNEVLMRVAELLKHRAENLVKHTEFKQWMSPSVREYWDDILNKTQSRPLFGWVKDLHLPANEDTPIPEPIELKPEAQALYDELQTQVGEVIHTGDWLLVDQERINQFGAVTEDMQWIHTNPDRAALESPFKTTIAHGFLTLALLPKLTDSVDEEKTLFPTAKMVVNIGLNSVRFPYPVKAGNRVRAVSTLSKVTPIKKGLEIEREIKVEIEGVRRPGCVVVSVIQLHF	failed
MVKRTSHKQASCPVARPLDVIGDGWSMLIVRDAFEGLTRFGEFQKSLGLAKNILAARLRNLVEHGVMVAVPAESGSHQEYRLTDKGRALFPLLVAIRQWGEDYFFAPDESHVRLVERDSGQPVPRLQVRAGDGSPLAAEDTRVSRD	not failed
MVKTAVLMATYNGEIFISEQLDSIRQQTLKPDYVLLRDDCSTDETVNVVNNYIAKHELEGWKIVKNDKNLGWRLNFRQLLIDVLAYEVDYVFFSDQDDIWYLDKNERQFAIMSDKPQIEVLSADVDIKTMSTEASVPHFLTFSSSDRISQYPKVYDYQTFRPGWTIAMKRDFAQAIADNWTFGANISHDNLIETTASIIGNGYNLNESVGVHIRYGGNASGNSKFVLNWKSPKTQHITGLKTFVDFYETMQKVVNKYQNDVALNQRLAFEKERLEASKLSLIHNSAFVIKNWRLYNSNSGRMRDLLFAFKKLEHHHHHH	not failed
MVKTKKEDLNQFLIPRLNTIYETLQLFDGTASPTVERVNWNDVLQMSDHLSKQATIVGMLWTGESPKADSLKETMESYFNALQGFLLCCHGSTLGAGPTLSSIIHVSVKQIVDSSFRLLQGSVSLYEGSYEKDKKPSIPQLSGVVWEACSSFKKVPATNITAIGRAITQVAVSMKDVLREMKEVKPACPLSECEASGDNMSSDDDDDDDLGDDLSPEEMEVATMVTEIVSETIMVIKELIRVITGMIKMENPKDNSGFVESLEKLLKLCQGTGVQIDELGACVYPPQEMNKMKQTVKVIQGNLDEFETEVERLKSSSDGFSGACGKLRNSLKHMETELDKRCEAELVVEMQNVTLDS	failed
MVLARAPEPHGGGNRLNSATMRVYLGKTHKHPHQNRRHTVSDISDYIVSHFKRSSREIGEVERRILELSHQKKLVSSDINAEFSAGASLGDRLADNIAKVGGSWGFILSFCFFLIFWAIINTIVLTTRAFDPYPFIFLNLLLSMLAAIQAPIIMMSQNRQAARDRFEAAKDYEVNLKAELEVLSLHEKIDVKVLAELAALRQDIAAIHHHVTRKDD	failed
MVLHVMLGEVVTKFLNMNNGVGEGGSQQRELHGKRKLFRGNDFAFSIARMAVAQICESVEVNPYQESQTREGVRFSSFQESALDTLTDVAVQYIQSIGKTAHLYANLAGRVDGNSLDILQALEDLGSGLGFAGVSDTDHCLADSGVVKDIIRYTGEAEEIPFVYSLPRFPFSKEKKPAPSFSEVGAEPPDEHIPVWLPAFPETELCDRSEETNAATIEGEIPSKENGSSLPSMQLSFDGGGRLEIHKSSKDVGESTEAVVEGNLFLTAPLRFVEKNVSPVVRPLELSNEVVRTNHVPDKHVRNNHHIPILEASAPSDKINNKNWLAISKDVEKVDVARKELTLVRFKIGTTKRSMCLAKNRSFQEEGWFQEGEDKREKTSEIKEKRERIDSQLSTQM	failed
MVLIGTVVNGAAIVIAALIGLLVKNIPERVKTTLMQAIGLAIVLLGVKMGLQTEQFLIVICSLVIGGVIGEMINLEKRLDHLGRWIESKVGGKKDGSIATAFVTTTLIYVVGAMAVLGALDSGLRGDHSVLLTKALLDGFLAILFTSTLGIGVLFSAIPVVLYQGSIALFASQIDQYVPTALMDSFITEMSATGGVMIVAIGLNLLNVVNIRVANLLPSLVIVAVLVTFVYKGFPF	failed
MVLTLDLADPAQPEHVFIVEDSRGATELKLYKSHYTIGKADSCDIRLHSIYASRQHATLVRFLTENGEVRYRLIDGDPETSRRSANGTYVNNRSITECDLKHYDQILFGADVKATYFYLSPQFRSLEHHHHHH	not failed
MVLTSGAGASLVLLNTFSEIYMRISTRVIGGALIATLLTQLTACGTIFYPDRRGQIGGKIDPVVAAMDAIGILFYVIPGLIAFGIDFATGAIYYPGGRTAQVDPAKLQEAVSPDGKVDNLKLQAILESELGQRLPLNDPRLIQHRGSIEQLASLGLVPAA	failed
MVMIMELLYAITAFILGMLHALEPGHGKSVVAAYILGTKADLKDAILLGTTITISHTAVIFLLGILSIYLLESLNVDVVHDMMSVVGGLILIAVGIWIIRSYLHPHEHKVDTKKGVITLGLSAGLVPCPAALAVLLLSISSGNLIDGLIYVAIFSIGLAISLTGLAVAFVESKELIKKYVGNRKVSKLPLISGSIIILIGLYTIAHPILEHAIV	failed
MVMQQIKKIGNSFWYMTPVSETDRPILGMVVGQEKTLMIDAGNSEEHAQLFLEMLKEQNVSNPDFVALTHWHWDHIFGLPVLQDALSIAHSETKKEMRTLVSYEWTDEALDARVKEGTEIAFCADCIKKEFEEKARNINIIPPTLTFQNQMELDLGEVTCVLKHVGGDHAHDSVVIYVKEEKILFLGDCIYADIFSSKWNYTTKRTFALIDELEKFDAETYILSHGEAINREEFLQEIRMLKAVGTYTEAHKGDEEKIKAAYKQELDRELNEDELETITYFVNGYEMNNQ	failed
MVNPIVVAAKQGQWQLVQEYLFAAASDQVNQRDERGLTVLMYAVASLEMTTVKQLLQAGADPNRSRPPHGITPLMLLAGLQSNPNNPEKNPVQQAIAAMLMEFGAEVNQGNDDGTTALMMAAYRNNLPLVETLLAGGARAKIQDQQGTTALEWAIKQQNLSMVRKLIEHHAPLDLSDGDGNLPLTLAIKTGDRVIVDYLLQAGAPWDQNGWFTAVEEGNVDQVKAFIQGGYPLTQAGDGGDTALHIACLEGYQSMVTILLEKGPKDMVNAVNQAGDTALHLAIAQGHVEIVTQLLNAGADGNFSSNGEPPLLTALTATHGNAQTQAVMVNALGRAGVDLDQTLWEGKTPLMLAAMANLAAVITTIANYSVQVNRGDPNGSTALMWACHRGHGAAVEALLTNFPALDLNLKNQGGQTALDLARLNHHGAIVALLESYISRSA	failed
MVNRFVLEPKTVLEGEQEQKLKDSEAAVASLQTSKEYLEKQVAEVENNLRELLQQEPGIAQQIMSMSM	failed
MVPDPFRVGPWTSVREAARLMAQRRVGSLVVVEDGQVLGVVTSRDLRGAHPNRLVVDVLKGPPVAISPEASLLEAKRLMEAKGLERLLVMRDRKLLGILTQGTLAFALGQHFDPLTGLPRADLLRHHLESLLAQGKDPTLLFVDLDDFGRLNKENGHPFGDRVLKTLGQRLKGFAQDLGGEVYRYGGDEFALVFPHPRQALLPALPSLLSPLEVEGKRVGFSVGVAGGRRRQRRVSANPSATADDLLKLASLASTHAKRQGSGWAPAEALKAKEGAPEGVSSPKEPQSAWGDNRRAARGGGGPRSGGRGSGPTGP	failed
MVPDVFIEVSLVIFIAFFISLVMRMLKQPLIIGYILTGILVSPYFLNIVRFEESISTLGHYGVTILLFMVGISLNPGYFKEIGKISLITGLGQILFTFSIGFLISVFLGYSLIESMYISIALTFSSTIIIMKLISDKGDIDKLYGKISIGFLIVQDIVAMAILVLISAFNVQSGAGELLFLIISKIVLILTAIYIFTKYALSNFISYASKNQEFLFLFSLMWCFTLASLFHLLGFSSEIGALIAGIVLAIFPERYEIASKVRPLRDFFLILFFVVLGVQMTFETSGNFIIPAIILSIFVLFGNPIIVMILMGAFGYTKKTGFLAGLTVAQISEFSLIIASLGLRNGHISQEIVSMITLIGIMTIAGSSYFITYSERIYALLSNYLSIFEKKTKISEKDFKNKNTGEIILFGADRTGKNILNVIENSKERFLIIDYNPKIIKNLSKRGYNSVYGDASNLELLNELNFKESKMLISTISDIETDILLIKTILKSNKNAIIIVIAHKIEDAIKLYEEGASYVIMPHFLGSIHASLMIQKYGLNIEEFLKEKSNHIESLKKSQELFRHTK	failed
MVPPRVSLLLRAETVVRPSVSAFPRKLPLVDMTAADALVGTTLAHRYRVESKIANGGMATVFLAHDLRLDRRVALKVMHANLARDPQFVQRFINEALAVAKLSHPNVVQVYDQGSDQGHVYLAMEYVAGQTLRAALKARTRFSPAEALRIMVPILAGLGAAHQAGMVHRDMKPENVLITHDGQIKVADFGLARAAEASQQGLTKTGTLMGTAAYLSPEQITHSTADARSDVYACGIMLYELLTGRQPHTGDSPIAVAYQHVNEDVPRPSRVVPGIPPEVDSLVVRATERDPAYRLANAGQFLAAVFAAQKALDEQPSAAVTSVMEMAPAPAGDTAEDSDNATRTLQGVELPPVEYDDYEDDRPPRPSLRTPLLVATVLLLVVAVGFGWWMVDGRYETVPDLVGVESDEARRDLRMLGFRVQTAEEPAYSDEAPPGTVAATDPEAGSRLLPDTLVTLILSAGPQYVEMPDVEGASVAEARDALKEVGLTDIVEDEITSFDNPPGTVITTKPAPGEKANREESVTLTISAGFPMPNVVGQKVDDARRLLESSDLEVTVVEEHHDEVPEGHVISQEPEAETTVGAGQSVTLTVSSGPELVEVPDIRGWKVDKARKELEERGFEVTVHQVIGNRVGDYNPKGEAPKGSTIEIWTSPFGRERDRDRGREDRLWIGLD	failed
MVPQTGRAARATRESGRQTRDALFTAATELFLEHGEGVPITQICAAAGAHPNQVTYYYGSKERLFVEVACAAVLRAGKRAEDDAATAETVGDYTEKLVGSLLGPGAPSVELFTSAMLMTGRRSELRDLITDTLRTLHSSGEVALIRTLMRTGWQLRAGIDVESKAFWSAIFGLVIQKTATGESFGYSLEEAVAVIFANLQIPETVRNTSID	not failed
MVPVVSPGPLVPVADFGPLDRLRGWIVTGLITLLATVTRFLNLGSLTDAGTPIFDEKHYAPQAWQVLNNHGVEDNPGYGLVVHPPVGKQLIAIGEAIFGYNGFGWRFTGALLGVVLVALVVRIVRRISRSTLVGAIAGVLLICDGVSFVTARTALLDGFLTFFVVAAFGALIVDRDQVRERMHIALLAGRSAATVWGPRVGVRWWRFGAGVLLGLACATKWSGVYFVLFFGAMALAFDVAARRQYQVQRPWLGTVRRDVLPSGYALGLIPFAVYLATYAPWFASETAIDRHAVGQAVGRNSVVPLPDAVRSLWHYTAKAFHFHAGLTNSAGNYHPWESKPWTWPMSLRPVLYAIDQQDVAGCGAQSCVKAEMLVGTPAMWWLAVPVLAYAGWRMFVRRDWRYAVVLVGYCAGWLPWFADIDRQMYFFYAATMAPFLVMGISLVLGDILYHPGQGSERRTLGLIVVCCYVALVVTNFAWLYPVLTGLPISQQTWNLEIWLPSWR	failed
MVPYLDGEDVAGVQSRVRMYNADENLLTKMQDIEFALFGNLIMRSRMKMGVPAFLGGNGQLVKRRAVEEIGGWDGYAVTEDLNLSVKLMLRGYDVKFSSEAEVFQEAVGDWPAFFRQRTRWLIGNLETLFVYLAPLIDAPITLHRKLDSLFYLFSMLFIGFVMLGYVVFILNLAGFTLRMNAPFIIGIISTIAFFPLVITGIRRDGYSLPRTLILSIEYWAYCLYLLPLFIVAAVHMIRRRERRWAKTFHTG	failed
